Measurements reported in paper PMC11765575 (International Journal of Molecular Sciences, 2025).

Molecular target: T1, osteocalcin C-terminal 7-residue peptide BGP-C7 (human)
T1 construct: C-terminal 7 residues of human osteocalcin (bone Gla protein, BGP), printed as NH2-RRFYGPV-COOH; Free N- and C-termini as printed (NH2-RRFYGPV-COOH); also called antigen peptide; osteocalcin C-terminal peptide
T1 chain: RRFYGPV
Experiment: crystal structure; KTM219 Fab with three molar excess BGP-C7, complex purified by gel filtration; crystallised at 20 °C, sitting drop, 0.07 M citric acid, 0.03 M Bis-tris propane (pH 3.4), 16% w/v PEG 3350, microseeding; refined to 2.30 Å
Conditions: both partners purified

B1: Fab fragment of anti-osteocalcin C-terminal peptide antibody KTM219 (Fab, V domains shown)
VH: QVKLQQSGAEFVKAGASVKLSCKTSGYTFNNYWIHWVKQSPGQGLEWIGEIDPSDGYSNYNQKFKGKATLTVDKSSSTAYMHLNSLTSEDSAVYYCTSSTSVGGSWGQGTTVTVSS
VL: DIELTQSPLSLPVSLGDQASISCTSSQSLLHSNGDTYLHWYLQKPGQSPKLLIYTLSNRFSGVPDRFSGSGSGTDFTLKISRVEAADLGIYFCSQTTHVPYTFGGGTKLEIK
notes: heavy chain (VH-CH1) of KTM219 Fab; light chain (VL-CL) of KTM219 Fab; also called KTM219 Fab
binding result: binds
